The values below come from article PMC9638026, “DNA double-strand break-derived RNA drives TIRR/53BP1 complex dissociation”.

The target of data set [1] is TIRR (6-211)-His (UniProt Q9BRJ7 6-211). Nature of the data set: SPR; SPR: 20 mM HEPES pH 6, 300 mM NaCl, 0.05% P20, 25 C; EMSA: 50 mM HEPES, 50 mM NaCl, 5% glycerol, 20 mM MgCl2, 0.01% Tween 20, 37 C 15 min, 10 nM probe. Conditions: protein: recombinant, tags: His.
Data set [2] concerns the target 53BP1-Tudor (Homo sapiens, UniProt Q12888 1484-1603). Nature of the data set: EMSA; 20 mM Mg2+; SPR: 20 mM HEPES pH 6, 300 mM NaCl, 0.05% P20, 25 C; EMSA: 50 mM HEPES, 50 mM NaCl, 5% glycerol, 20 mM MgCl2, 0.01% Tween 20, 37 C 15 min, 10 nM probe. Conditions: protein: commercial; label: 32P 5' in EMSA; hairpin.

Sequence of TIRR (6-211)-His (Q9BRJ7 6-211): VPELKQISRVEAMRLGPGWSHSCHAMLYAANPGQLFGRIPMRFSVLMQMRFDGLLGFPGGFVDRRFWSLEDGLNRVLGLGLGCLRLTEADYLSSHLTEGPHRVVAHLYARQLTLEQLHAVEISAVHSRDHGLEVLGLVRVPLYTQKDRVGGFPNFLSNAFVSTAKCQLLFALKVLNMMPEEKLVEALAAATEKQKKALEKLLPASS
Sequence of 53BP1-Tudor (Q12888 1484-1603): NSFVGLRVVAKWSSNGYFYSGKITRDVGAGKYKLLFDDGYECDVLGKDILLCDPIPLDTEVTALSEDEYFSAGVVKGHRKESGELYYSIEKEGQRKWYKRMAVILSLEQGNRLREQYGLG

As for CGCUCCCAAAAAAAAAAACCGAGCG (structured_RNA) [RNA beacon], the Kd in data set [1] (label: 32P 5' in EMSA, hairpin) is ~100 µM. Further, the binding result in data set [2] is on record as “no binding”.

B1: dsRNA (dsRNA)
RNA 1: GGACAAGAUGCCUUAUGUGG
RNA 2: CCACAUAAGGCAUCUUGUCC
As to B1, the Kd in data set [1] (blunt) is ~200 µM.
As for GGACAAGAUGCCUUAUGUGGACUUCACCACAUAAGGCAUCUUGUCC (structured_RNA) [RNA hairpin], the Kd in data set [1] (hairpin) was ~100 µM.
